In article PMC10247727, “Stabilization of pre-existing neurotensin receptor conformational states by β-arrestin-1 and the biased allosteric modulator ML314” (Nature Communications, 2023):

Molecular target: T1, enNTS1ΔM4 (minimal methionine variant of the thermostabilized rat neurotensin receptor 1 variant enNTS1) (rat, N262^5.63R (stands in the printed letters) | K263^5.64R (stands in the printed …))
T1 construct: residues left before the receptor after HRV 3C cleavage (so in the source); enNTS1ΔM4: rat neurotensin receptor 1 thermostabilized by directed evolution (enNTS1), four of the ten methionines removed; linker, C-terminal Avi-tag and the rest of the HRV 3C site, as printed (the Avi-tag is named under tags too); In DDM micelles; 13CεH3-methionine labelled or unlabelled; also called …
T1 chain: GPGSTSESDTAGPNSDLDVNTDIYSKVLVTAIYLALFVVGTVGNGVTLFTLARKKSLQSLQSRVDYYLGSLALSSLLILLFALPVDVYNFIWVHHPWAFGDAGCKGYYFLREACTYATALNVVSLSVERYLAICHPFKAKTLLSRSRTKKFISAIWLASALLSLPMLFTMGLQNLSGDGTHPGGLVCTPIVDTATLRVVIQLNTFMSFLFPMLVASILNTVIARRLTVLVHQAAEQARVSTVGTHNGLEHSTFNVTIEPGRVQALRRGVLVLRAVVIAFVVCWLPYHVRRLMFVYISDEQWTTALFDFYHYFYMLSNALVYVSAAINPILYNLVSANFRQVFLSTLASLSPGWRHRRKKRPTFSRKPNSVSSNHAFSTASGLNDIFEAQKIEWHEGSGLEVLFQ
Test: NMR (1H-13C HMQC spectra); 66 μM [13CεH3-methionine]-enNTS1ΔM4 with 500 μM ML314 (no NT8-13), 130 μM PIP2 and 2.3x molar equivalents βArr1-3A, 298 K
Settings: both partners purified

binding result: binds
B1: βArr1-3A (pre-activated cysteine-free human β-arrestin-1, I386A/V387A/F388A), tags removed (natural protein)
chain: GPSGDKGTRVFKKASPNGKLTVYLGKRDFVDHIDLVDPVDGVVLVDPEYLKERRVYVTLTVAFRYGREDLDVLGLTFRKDLFVANVQSFPPAPEDKKPLTRLQERLIKKLGEHAYPFTFEIPPNLPSSVTLQPGPEDTGKALGVDYEVKAFVAENLEEKIHKRNSVRLVIRKVQYAPERPGPQPTAETTRQFLMSDKPLHLEASLDKEIYYHGEPISVNVHVTNNTNKTVKKIKISVRQYADIVLFNTAQYKVPVAMEEADDTVAPSSTFSKVYTLTPFLANNREKRGLALDGKLKHEDTNLASSTLLREGANREILGIIVSYKVKVKLVVSRGGLLGDLASSDVAVELPFTLMHPKPKEEPPHREVPENETPVDTNLIELDTNDDDAAAEDFARQRLKGMKDDKEEEEDGTGSPQLNNR
notes: residues left after HRV 3C cleavage (so in the source); human β-arrestin-1, cysteine-free, 3A mutant; Used in the NMR experiments, unlabelled or [U-15N,13C,2H]-labelled; also called hβArr1-3A; βArr-3A; source: E. coli BL21(DE3), purified (Ni-NTA, HRV 3C cleavage, HiTrap Q, SEC); not shown: His6, N-terminal, cleaved; Protein C tag, N-terminal, cleaved
